T1: Rhizomucor miehei lipase (RmL) mature protein (Rhizomucor miehei, UniProt P19515 95-363)
T1 construct: Expressed in Aspergillus oryzae ToC1512 from the gene with its prepropeptide; The mature part is the same in all RMLPP variants; also called RmL WT; mature protein of the lipase
T1 sequence: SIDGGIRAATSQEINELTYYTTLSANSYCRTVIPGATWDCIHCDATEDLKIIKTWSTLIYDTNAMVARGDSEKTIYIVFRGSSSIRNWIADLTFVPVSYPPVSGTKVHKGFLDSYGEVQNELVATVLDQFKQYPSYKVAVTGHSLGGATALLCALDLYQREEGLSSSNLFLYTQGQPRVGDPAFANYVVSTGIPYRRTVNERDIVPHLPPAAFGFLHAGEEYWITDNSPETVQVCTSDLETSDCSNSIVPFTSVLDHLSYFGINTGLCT


Columns and labels:
[1] = molecular target: T1, Rhizomucor miehei lipase (RmL) mature …; assay: native PAGE, column HMW band (taken by the filing as lipase associated with propeptide)
Method: (§1) The native PAGE was casted by first pouring the Resolving gel (4.0 mL 30% Acrylamide (Acrylamide-Bis-acrylamide solution); 2.5 mL 1.5M Tris (pH8.8); 0.1 mL 10% Ammonium per sulphate (APS); 0.004 mL TEMED; 3.3 mL water), followed by overlaying with butanol-water and allowing to polymerize for 30-45 minutes. The butanol-water was washed off and then the stacking gel (1.7 mL 30% Acrylamide (Acrylamide-Bis-acrylamide solution); 1.25 mL 1.5M Tris (pH6.8); 0.1 mL 10% Ammonium per sulphate (APS); 0.01 mL TEMED; 6.8 mL water), was poured over the polymerized resolving gel, immediately followed by insertion of the comb. This was allowed to polymerize for approx. 15 minutes. The protein sample (culture supernatant) was mixed with loading dye (5× composition (2 mL): 0.62 mL 1M Tris pH6.8; 0.1 mL 1% Bromophenol blue; 1.0 mL Glycerol; 0.28 mL Water) and loaded in to the wells of the native PAGE. The gel was run in SDS-free electrophoresis buffer (3.0 g Tris base; 14.4 g Glycine; water up to 1 L) at constant current of 25 mA.

[2] = molecular target: T1, Rhizomucor miehei lipase (RmL) mature …; assay: native PAGE of culture supernatant; HMW band, taken by the filing as lipase associated with propeptide
Method: as §1

binding result [1]	binding result [2]	Binder
binds		propeptide of RmL (wild type) (also called RmL WT propeptide) peptide: VPIKRQSNSTVDSLPPLIPSRTSAPSSSPSTTDPEAPAMSRNGPLPSDVETKYGMALNATSYPDSVVQAM
	no binding	propeptide of RMLPP0006 (N-63Q N-13Q) (peptide) peptide: VPIKRQSQSTVDSLPPLIPSRTSAPSSSPSTTDPEAPAMSRNGPLPSDVETKYGMALQATSYPDSVVQAM

Reference: patent US20170137795A1 (NOVOZYMES A S, published 2017)
